The data set is described as follows: label from the status in PepcDB records.

Turning to “MVRRKKLLSGVLLLSGMLCTGRVMAQQWLYKQAAVPIEYRVKDLLGRMTIEEKVGQLCCPLGWEMYTKTGKNEVTVSELYKKKMAEAPVGSFWAVLRADPWTQKTLETGLSPELSAKALNALQKYAVEETRLGIPVLFAEECPHGHMAIGTTVFPTALSAASTWNEGLMLKMGEAIALEARLQGANIGYGPVLDVAREPRWSRMEETFGEDPVLTTIMGVAMMKGMQGKVQNDGKHLYATLKHFAAYGVPESGHNGSRANCGMRQLLSEYLPPFRKAVKEGAGTLMTSYNAIDGVPCTANKELLTDVLRNQWGFKGFVYSDLISIEGIVGMRAAKDNKEAAVKALKAGLDMDLGGNAFGKNLKKAYEEGLITMADLDRAVGNVLRLKFQMGLFENPYVSPELAKKLVHSKEHKELARQVAREGVVLLKNEGVLPLSKHIGHLAVIGPNADEMYNQLGDYTAPQVREEVATVLDGIRAAVSESTRVTYVKGCAVRDTTATDIPAAVAAAQKADAVVLVVGGSSARDFKTKYISTGAATVSEDAKTLPDMDCGEGFDRSSLRLLGDQEKLISAVASTGKPLVVVYIQGRTMNMNLAAEKAQALLTAWYPGEQGGMGIADILFGDYSPAGRLPVSVPRSEGQLPVFYSQGTQRDYVESKGTPLYAFGYGLSYTRFTYSGLELQKGTEMETLQTVACTVTNTGNRDGEEVVQLYIGDKVASVSQPPLLLKAFQRIFLKKGESRQVIFHLKKDDLGIYDSEMNYVVEPGEFKVMVGAASNDIRLEGEFVL”, the protein production result is “failed”. To “MVSAFNTGRTDDVDEYIHPDYLNPATLEHGIHTGPKAFAQLVGWVRATFSEEARLEEVRIEERGPWVKAYLVLYGRHVGRLVGMPPTDRRFSGEQVHLMRIVDGKIRDHRDWPDFQGTLRQLGDPWPDDEGWRP” belongs “not failed”. As to “MVSRLEHPAGGYKKVFESCEELAEPIPAHVSGKIPAWLSGSLLRMGPGLFEIGDEPFNHLFDGQALIHKFDLKDGRVTYHRKFIRTDAYVRAMTEKRVVITELGTAAYPDPCKNIFSRFFTYFQGTEVTDNCSVNIYPIGEDFYACTETNFITKVNPDTLETIKKVDLCNYLSVNGLTAHPHIEADGTVYNIGNCFGKNMSLAYNIVKIPPLQEEKSDPLAMSKVLVQFPSSERFKPSYVHSFGMTENHFVFVETPVKINLLKFLTSWSIRGSNYMDCFESNDRMGTWFHLAAKNPGKYINNPSQ”, the protein production result is “failed”. As for “MVTDADYRELRGATETPREAVVVGLAGEVGLTSAEIPRVRPCDVAPHDHDGVTHYFLAVPGADGGSDRDAYLPPAVERDIRRRADAAGLADDDPLVDVSARRVQTLVNAVAGRTDTAGLDGVAAQDLRSFFARRLLTGAGVDPRVVAAVGGWSRLASLDQYAAVDALEHHHHHH”, the protein production entry is reported as “failed”. With “MVTGIVFHEEYLKHEQSPTHPERRERLAYTMDQLREEGIFESERIVLLEPFKASLEDVLEVHTEEYVRFLEMESKKGGIIDFDTNIPVGVFDRALLAAGGAIRAAQAVLNKECENAFAMIRPPGHHAKPYIGAGFCYLNNMAIMVKWLLKQGFERIAILDWDAHHGDGTQEIFYNDDRVLFISTHQMPLYPGTGYPEECGTGKGEGYTVNIPLPPGTGDEGYMMVIDEIIEPVVNEFKPQFIAISAGQDNHFTDPITSLALTARGYAEMMRRAVAMAEKHCDGRLVAVLEGGYSVEGALPYTNLGIIAAMAGFDLSAIREPENYLPELLWRKRDSALVKLKHNIEDVKRVHSKYWKCFK”, the protein production entry is on record as “failed”. The entry for “MVTLQAFQPLIDTVQGSLLLASPDDGHIYCANQLACILLASPHSELLKSSVYDFLPDKNEAYTICRELAGNNMIYNRGMQLSTSTGRIFDVQLSARRISLDQVPLLVVSFSDRTETKVLGQLLDFERQLVERSLSIVKTLKEEGRQNDDEDKLTGVVGMHRLMSSAHSETSRAKRYGGSLSGLALELVNVPEMVPREDDGSAYGHLIRLAGSLCLQSSRDSDLVARRSANTFVILLPHTAIGGANEMGRRLIKSLRQLTFLYQGTEHQAAACVGISALRPEESSPTPMLERLEEALKKARDGGANYIIQLP” is “failed”; for “MVTNKLITLLPDLATFIVVVNEGSFTAAAKKLGVTPSALSKLITRLENALSVKLFERTTRSLLITESGKKIYQQSVIMVEAAQQAVDISSSEHTVPSGSLTVAAPKAFLTIVLQPLITPFLTKYPKIQLKLRASDGDIDMIAQGIDVVFRLTDKPTEGLVMKEIGKVNLSLCASPTYLEERGIPHLPQELANHDCLFLGETTTDHIWEFVKGTESHVIAVSGRYAVNHSQMRLNGVKDGFGIGIFPDFVIKEALANNEVISVLSDWQIKGNYHGVIAMQYAQNKYIPSRLKVFTEFVKENLMKSKVNDERT” it is “not failed”.

Regarding “MVTPFPEVSEWLCIGQIVGAHGLRGEVKVKPFSDFPERFTVPGCRWLRSPRQPQPYAVTLLRGRFLPRAEQFVVTFAEISDRTAAEALKGAEILVPASDRPPLAANEYHLMDLIGLAVYHQGERVGEVVGLVNAGNDLLEVQLLDPAPKAPQSVYIPFVPAIVPVVDLAARRIEIDPPLGLLPLEHHHHHH”, the protein production result is “failed”. Take “MVTREEFVARFGGVFEHSPFIAERAYDAGGAGLELTAKAVHGALCAQFRVASEAERLGVLRAHPDLAGKLAIAGELTADSRNEQAGAGLDRLSPQEHARFTQLNSAYTEKFGFPFIIAVKGLNRHDILSAFDTRIDNNAAQEFATATGQVEKIAWLRLASMLPEG”: the protein production entry is listed as “not failed”.

For the sequence “MVVNTLGRYFARRFVIASLGVFFGLFVLLVFVDYVDLLRRAGGLAVSAFYVAQASFCRVPQLLERLLPFCILIGGMTCYLALSRSLELVVARAAGLSAWEFISPALWSAIAIGIFATTVFNPLSAHMQERAKQMEAEMFGENTGGLQDANGFWMNQVSPDGQAIINAARSQQQGAVLTGITVFRFEPDFQFKDRIEAREAVLEPGHWLLKNVRRYTMDGAPVDQDTLELPTSLTLAQVRNSFATPESVSFWQLPTYIKSSENSGFATAGYRLQYHKLLAKPFLLAAMVMLAASVSLRFFRFGGVQKMVLSGVAAGFLLYILSKVTEDLSKAELMHPLAAAWLPVCVGGLAGFLALLYQEDG”, the protein production result was “failed”.

As to “MVVSTDQAHSLGDVLGIAVPPTGQGDPVRVLAYDPEAGGGFLDALALDTLALLEGRWLHVVETLDRRFPGSELSSIAPEELCALPGIQEVLGLHAVGELAAARRWDRIVVDCASTADALRMLTLPATFGLYVERAWPRHRRLSIGADDGRSAVLAELLERIRASVERLSTLLTDGALVSAHLVLTPERVVAAEAVRTLGSLALMGVRVEELLVNQLLVQDENYEYRSLPDHPAFHWYAERIGEQRAVLDDLDATIGDVALVLVPHLAGEPIGPKALGGLLDSARRRQGSAPPGPLQPIVDLESGSGLASIYRLRLALPQLDPGTLTLGRADDDLIVSAGGMRRRVRLASVLRRCTVLDAHLRGGELTVRFRPNPEVWPT”, the protein production result was “failed”. On to “MVVVMNPEQIYGVSNIKSHIPVMLDIEESNYDAWRELFLTHCLSFDVMGHIDGTLLPTNANDVNWQKRDGIVKLSLYGTLTPKQFQGSFVTSSTSRDIWLRIKNQFRNNKDARALRLDSELRTKDIGDMRVADYYRKMKKLADSLRNVDVPVTDRNLVMYVLNGLNPKFDNIINVIKHRQPFPSFDDAATMLQEEEDRLKRAIKPNPTHVDHSSSSTVLACSEAPPVTNFQRSGGNQMGYRGRGRGNNIFRGRGGRFSYYNMPTFNSWNRPPFYQNSYQMWNHPWGYPPYVNTNGGNGLGLLGPRPAY”, for which the protein production entry is given as “failed”. For the sequence “MVWLWCVLHLLVAALGTWGLRRYALHRRLLDHPGERRSHVVATPRGGGMAIVAAILLGCVAACALWPTSRLTVCWFAAGLVAVAGVGWWDDHRPLSARLRFSIHLAASVALGALVWHGTGSVWDGVLTAAASVMLINVWNFMDGINGLASTQAALAALGFSLVAPVGWSWAGLAVAAACLGFVPFNFPRARIFMGDGGSGALGYVLAALLALNVAGGQVSWWISWLPLTAFLVDAGFTLLARMLSGQRWWEPHAQHVYQRLARRLETHVPVTGVYFAFSLIAVCLYLLIRHDPFWLQVSGALVWGMGATAIWHFLRDGLRNS”, the protein production entry was “failed”. On to “MVYELVYELVYAKIYTNKRIPIREDPCMARTTRPLTHTEVQKAKATDKDLTLHDGDGLFLLVKTTGKKIWRFRYQVPGTSKRTMISLGAYPALSLADAREVRSEKLAILVKGIDPQARAGEEAEKLQIAQESIFVNVARKWFELKQSHVSADHAKDIWRSIEKDILPSIENVPIQELKARTLIQVLEPIKARGALETVRRLVQRINEIMIYAVNVGLIEANPASGIGNAFERPKKQHMPIIRPEELPKLMRTISMSNLSIPTRCLLEWQLLTLIRPAEASATAWSEIDIENKQWCIPAERMKAKRDHIVPLSEQALELLEIMRPISGNRQYVFPSRNDPRKPMNSQTANAALKRIGYSGKLVAHGLRSIASTAMNEAGFNADVIEAALAHSDKNEVRRAYNRSTYLTQRVELLGWWGEFVNRTQVI”, for which the protein production entry is on record as “failed”. As to “MVYLLPFFTVMIWGGNSIVNKMAASTIEPSAMSFYRWFVAMVLLTPFCLPAVIKQRHVIRPYLTKLAFLALLGMVLNQSLGYYAGLTTTASNMALITSLVPLISVFLSVPLLGKSVSMLSIVGGVISLGGLAFMLGHGDVTYFLHQDMTQGDSLMLLAALVYAAYCVLLKRWKMPFNSLTLVYMQGFFSVIMLTPLWLSSEQLLPSQEALPLIAYAGIAASIFAPLMWVKAIDLIGADSSAMFMNLMPVVSVALASTLLGEEIHVYHIIGGLMVISGVILSQIKVRKKQDLVVSESLTTTTR”, the protein production entry is reported as “failed”.

In the case of “MVYVAVLANIAGNFPALTAALEKIEELKEEGYEIEKYYILGNIVGLFPYPREVIEAIKNLAKTSNVKVIRGKYDQLIAMSDPHAGDPKYIDKLEIPDHLKATLKYTWEKLGHEGREYLRDLPIYLVDKIGKNEIFGVYGSPVNPFDGEILPDQPTSYYEAIMRPVKEYEMLLVASPRYPLDAMTMYGRVVCPGSIGFPPAREHKATFALVDAETLKVKFIEVEYDKKIIEDRIKLEKLPEEVIKILYHGGKA”, the protein production result is given as “not failed”. As for “MVYVFQGIGGYIILFLLMIGEGIGLPLPSEVIMPLVGYYSYLGSISLYLGVIVGTLGSLVGSIIAYIIGYKLGLAFLKRYGKYILIDEGKIEALHNWFLRYGNMAVFGFRFIPGLRALISYPAGIGQMKILKFLGFTFLGHTIWDIVLALIGYQLANQINFVITQAEKLGNYLFILVIVIIVIYILWRIFWKRK”, the protein production result is on record as “failed”.

In the case of “MWDSENIEELSLVIGIGLDKPDDENLELTQQILVPKIISAKEGSSSDPTQLSITKGKTVHQMMRTSALKHKPTFSQHLRLILLSKSVIADQIGMDAIINQFVRDNGTRRSSYVFITNGRTKDIFNMNDEGEPASNVIYDLTENNKVTIRTMEPVTLGEISEHLTSDDSFLIPHVGKENGKLAINGASIIKNKLWHRDLTPIEVQNISLFSGTVEGGVIDLKRDGHLFSYEVYSSNRKIKTAYKDGKFKFTVTRNIEGRLSEDWNPNEDSFKDSYIKSIEKTVEKRVHETVTSFITEKLQKEIKADVTGLGNEVRIHYPQKWKKISRKWDDDYFSNAEIDYRVNVIVRDFGTKGANKLEHHHHHH”, the protein production result was “not failed”. As to “MWEAIKDRETGRIRSNSFANRFKSRRILSLQLSNRKDFVSPHRGSVNSLQVDLTEGRYLLSGAADGSAAVFDVQRATDYEASGLIAKHKCIFTVDKQHENGHKYAISSAIWYPIDTGLFITGSFDHYLKVWDTNTAQAVVDFKMPGKVYRTAMSSMAMSHTLIAAGTEDVQVRLCDIASGAFSHTLSGHRDGVMSVEWSTSSEWVLYTGGCDGAIRFWDIRRAGCFRVLDQSQTQLGFRPPILKRTAVGSKLSSVAKSSLGGQNRLKTLQSKQTGSQSVKGSSSAKASVEKSRQKRIHPGMLSTLDRATAHYGAVTGLKATNDGMYLLSAGSDSRIRLWDIESGRNTLVNFETGRIQTNKGIQLDTSDDPALVFVPCMKTVKVAFGMWSGRTTLMLRGHYESVNTCCFNSNDQELYTSGSDRQILVWSPGGTVEDEMVQDEVAEDKDNWSD”, the protein production result is listed as “failed”.

The values above are taken from a protein production outcome set (Wang et al. 2014).
